Tested on: Escherichia coli TOP10
Assay: shrunken log2 fold change of peptide-encoding DNA abundance (4.5 h post-induction vs induction); higher = less antimicrobial activity (less host growth inhibition)
Settings: time post-induction: 4.5 h; library: site-saturation at positions 5, 18, 19, 20
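Further: peptides expressed intracellularly from a pBAD plasmid library in pooled LB shake-flask culture, induced with 0.3% L-arabinose, DNA abundance read by NGS, three biological replicates, DESeq2 with apeglm shrinkage.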

Going from RRIRFRPPRLPRPRPRPSRAPRP to RRIRFRPPRLPRPRPRPSRHPRP, the “shrunken log2 fold change” value falls from 0.352 to -0.162.

Compared with RRIRFRPPRLPRPRPRPSRMPRP, RRIRFRPPRLPRPRPRPSRNPRP is lower in “shrunken log2 fold change” value: 0.311 for the first, -0.346 for the second.

RRIRFRPPRLPRPRPRPSRQPRP and RRIRFRPPRLPRPRPRPSRYPRP are within 0.2 log units of each other in “shrunken log2 fold change” value: -0.0117 for the first, -0.0764 for the second.

Compared with RRIRFRPPRLPRPRPRPSTKPRP, RRIRFRPPRLPRPRPRPSVHPRP is lower in “shrunken log2 fold change” value: 0.0858 for the first, -0.233 for the second.

Compared with RRIRFRPPRLPRPRPRPSVWPRP, RRIRFRPPRLPRPRPRPSWSPRP is lower in “shrunken log2 fold change” value: -0.229 for the first, -0.557 for the second.

Compared with RRIRFRPPRLPRPRPRPTDFPRP, RRIRFRPPRLPRPRPRPTFEPRP is higher in “shrunken log2 fold change” value: -0.302 for the first, -0.00113 for the second.

RRIRFRPPRLPRPRPRPTFPPRP and RRIRFRPPRLPRPRPRPTFRPRP are within 0.2 log units of each other in “shrunken log2 fold change” value: -0.0193 for the first, -0.0216 for the second.

RRIRFRPPRLPRPRPRPTIYPRP and RRIRFRPPRLPRPRPRPTKLPRP are within 0.2 log units of each other in “shrunken log2 fold change” value: -0.689 for the first, -0.494 for the second.

Compared with RRIRFRPPRLPRPRPRPTLLPRP, RRIRFRPPRLPRPRPRPTMIPRP is lower in “shrunken log2 fold change” value: -0.0998 for the first, -0.941 for the second.

Compared with RRIRFRPPRLPRPRPRPTMLPRP, RRIRFRPPRLPRPRPRPTNCPRP is higher in “shrunken log2 fold change” value: -0.423 for the first, 0.0341 for the second.

RRIRFRPPRLPRPRPRPTPMPRP and RRIRFRPPRLPRPRPRPTPNPRP are within 0.2 log units of each other in “shrunken log2 fold change” value: 0.178 for the first, 0.296 for the second.

Going from RRIRFRPPRLPRPRPRPTRMPRP to RRIRFRPPRLPRPRPRPTTAPRP, the “shrunken log2 fold change” value falls from 0.762 to 0.297.

Going from RRIRFRPPRLPRPRPRPTTMPRP to RRIRFRPPRLPRPRPRPTTYPRP, the “shrunken log2 fold change” value falls from -0.0267 to -0.608.

Compared with RRIRFRPPRLPRPRPRPTWFPRP, RRIRFRPPRLPRPRPRPTWRPRP is higher in “shrunken log2 fold change” value: 0.0971 for the first, 0.587 for the second.

Going from RRIRFRPPRLPRPRPRPTYKPRP to RRIRFRPPRLPRPRPRPVAGPRP, the “shrunken log2 fold change” value rises from -0.42 to 0.128.

RRIRFRPPRLPRPRPRPVAIPRP and RRIRFRPPRLPRPRPRPVCNPRP are within 0.2 log units of each other in “shrunken log2 fold change” value: -0.0527 for the first, -0.0727 for the second.

Going from RRIRFRPPRLPRPRPRPVEDPRP to RRIRFRPPRLPRPRPRPVERPRP, the “shrunken log2 fold change” value rises from -0.264 to 0.0308.

Compared with RRIRFRPPRLPRPRPRPVGPPRP, RRIRFRPPRLPRPRPRPVLLPRP is lower in “shrunken log2 fold change” value: 0.405 for the first, -0.209 for the second.

Going from RRIRFRPPRLPRPRPRPVMAPRP to RRIRFRPPRLPRPRPRPVMNPRP, the “shrunken log2 fold change” value falls from -0.271 to -0.548.

Going from RRIRFRPPRLPRPRPRPVPHPRP to RRIRFRPPRLPRPRPRPVPWPRP, the “shrunken log2 fold change” value rises from -0.342 to 0.0558.

First: RRIRFRPPRLPRPRPRPVPYPRP
Second: RRIRFRPPRLPRPRPRPVQGPRP
The “shrunken log2 fold change” value of the first is lower: -0.693 for the first, -0.169 for the second.

RRIRFRPPRLPRPRPRPVRHPRP and RRIRFRPPRLPRPRPRPVTAPRP are within 0.2 log units of each other in “shrunken log2 fold change” value: 0.0636 for the first, -0.0836 for the second.

Going from RRIRFRPPRLPRPRPRPVTYPRP to RRIRFRPPRLPRPRPRPVYRPRP, the “shrunken log2 fold change” value rises from -0.557 to -0.285.

RRIRFRPPRLPRPRPRPVYWPRP and RRIRFRPPRLPRPRPRPWCVPRP are within 0.2 log units of each other in “shrunken log2 fold change” value: -0.195 for the first, -0.384 for the second.

Compared with RRIRFRPPRLPRPRPRPWDDPRP, RRIRFRPPRLPRPRPRPWDQPRP is higher in “shrunken log2 fold change” value: -0.636 for the first, 0.0971 for the second.

Going from RRIRFRPPRLPRPRPRPWFIPRP to RRIRFRPPRLPRPRPRPWFLPRP, the “shrunken log2 fold change” value falls from -0.175 to -1.15.

RRIRFRPPRLPRPRPRPWGIPRP and RRIRFRPPRLPRPRPRPWGRPRP are within 0.2 log units of each other in “shrunken log2 fold change” value: -0.0116 for the first, 0.0219 for the second.

Going from RRIRFRPPRLPRPRPRPWGSPRP to RRIRFRPPRLPRPRPRPWICPRP, the “shrunken log2 fold change” value falls from -0.0689 to -1.05.

RRIRFRPPRLPRPRPRPWKLPRP and RRIRFRPPRLPRPRPRPWLHPRP are within 0.2 log units of each other in “shrunken log2 fold change” value: -0.0164 for the first, 0.0608 for the second.

RRIRFRPPRLPRPRPRPWLKPRP and RRIRFRPPRLPRPRPRPWLWPRP are within 0.2 log units of each other in “shrunken log2 fold change” value: -0.111 for the first, -0.052 for the second.

RRIRFRPPRLPRPRPRPWMIPRP and RRIRFRPPRLPRPRPRPWMTPRP are within 0.2 log units of each other in “shrunken log2 fold change” value: -0.00776 for the first, 0.0687 for the second.

RRIRFRPPRLPRPRPRPWMWPRP and RRIRFRPPRLPRPRPRPWNFPRP are within 0.2 log units of each other in “shrunken log2 fold change” value: -0.0253 for the first, -0.0389 for the second.

First: RRIRFRPPRLPRPRPRPWNRPRP
Second: RRIRFRPPRLPRPRPRPWQSPRP
The “shrunken log2 fold change” value of the first is lower: -0.216 for the first, 0.146 for the second.

RRIRFRPPRLPRPRPRPWRAPRP and RRIRFRPPRLPRPRPRPWRQPRP are within 0.2 log units of each other in “shrunken log2 fold change” value: 0.0757 for the first, -0.103 for the second.

RRIRFRPPRLPRPRPRPWTDPRP and RRIRFRPPRLPRPRPRPWTPPRP are within 0.2 log units of each other in “shrunken log2 fold change” value: -0.345 for the first, -0.26 for the second.

RRIRFRPPRLPRPRPRPYCKPRP and RRIRFRPPRLPRPRPRPYEMPRP are within 0.2 log units of each other in “shrunken log2 fold change” value: -0.243 for the first, -0.412 for the second.

RRIRFRPPRLPRPRPRPYGWPRP and RRIRFRPPRLPRPRPRPYHTPRP are within 0.2 log units of each other in “shrunken log2 fold change” value: -0.0451 for the first, -0.0117 for the second.

For RRIRFRPPRLPRPRPRPYIMPRP, the “shrunken log2 fold change” value was -1.09.
